{"source": "paper PMC2647316", "about": "(Nucleic Acids Research, 2008)", "assay_in_all_cases": "SPR", "key": {"GkDnaC R120A": {"biological_target": "T1, GkDnaC R120A (Geobacillus kaustophilus HTA426, UniProt Q5KU75 1-454, R120A)", "T1 sequence": "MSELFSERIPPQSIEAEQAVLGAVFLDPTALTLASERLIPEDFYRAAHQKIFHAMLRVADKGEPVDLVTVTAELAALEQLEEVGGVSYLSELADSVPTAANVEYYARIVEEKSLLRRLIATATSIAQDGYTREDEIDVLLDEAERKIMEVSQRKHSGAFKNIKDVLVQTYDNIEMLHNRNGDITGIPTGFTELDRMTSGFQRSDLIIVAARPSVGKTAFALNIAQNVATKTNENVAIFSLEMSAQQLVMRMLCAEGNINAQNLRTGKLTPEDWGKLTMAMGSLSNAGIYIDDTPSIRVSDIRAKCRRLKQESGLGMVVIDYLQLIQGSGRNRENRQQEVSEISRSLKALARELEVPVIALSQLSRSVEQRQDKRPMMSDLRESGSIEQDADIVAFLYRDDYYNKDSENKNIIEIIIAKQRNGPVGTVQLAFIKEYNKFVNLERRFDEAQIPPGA"}, "GkDnaC R145A": {"biological_target": "T2, GkDnaC R145A (Geobacillus kaustophilus HTA426, UniProt Q5KU75 1-454, R145A)", "T2 sequence": "T1 sequence with A120R, R145A"}, "GkDnaC R344A": {"biological_target": "T3, GkDnaC R344A (Geobacillus kaustophilus HTA426, UniProt Q5KU75 1-454, R344A)", "T3 sequence": "T1 sequence with A120R, R344A"}, "GkDnaC R332A": {"biological_target": "T4, GkDnaC R332A (Geobacillus kaustophilus HTA426, UniProt Q5KU75 1-454, R332A)", "T4 sequence": "T1 sequence with A120R, R332A"}}, "note": "Residue numbers refer to the chain shown, from its start.", "data": [{"binder": "TTTTTTTTTTTTTTTTTTTTTTTTTTTTTT (ssDNA)", "note": "[5'Bio-(dT)30]", "values": [{"measurement": "Kd", "setting": "GkDnaC R120A", "result": 1.73, "unit": "µM"}, {"measurement": "Kd", "setting": "GkDnaC R145A", "result": 1.39, "unit": "µM"}, {"measurement": "Kd", "setting": "GkDnaC R344A", "result": 17.9, "unit": "µM"}, {"measurement": "Kd", "setting": "GkDnaC R332A", "result": 6.64, "unit": "µM"}]}]}
